From patent US12661396B2, “Selective targeting of the TREML1/MD2 interaction by small peptide or protein and its use for vaccine adjuvants” (Ascendo Biotechnology, Inc., priority 2020, dated 2026)

Key:
[1] = system: THP1/XBlue/MD2/CD14 cells; assay: TREML1 ECD binding to THP1/XBlue/MD2/CD14 cells and antibody competition (flow cytometry); format: cell-based; settings: TREML1 ECD 10 ug/ml, 1 hour; AF647-anti-human TREML1 staining; FIG. 4
Source text: (§1) In addition to the solid phase binding assays, the TREML1 ECD binding was further evaluated using THP1/XBlue/MD2/CD14 cells (InvivoGen, San Diego, USA), which express MD2 and CD14. These cells (InvivoGen, San Diego, USA) are derived from the human monocytic THP1 cell line and express an NF-κB- and AP-1-inducible secreted embryonic alkaline phosphatase (SEAP) reporter gene.
To investigate the effects of anti-TLR4 antibody (HTA125, BioLegend #312814) and anti-MD2 antibody (18H10, ThermoFisher #MA5-33351) on TREML1 ECD binding to THP1/XBlue/MD2/CD14 cells, cells were pretreated with anti-MD2 antibody, anti-TLR4 antibody, IgG control, or a combination for 15 min at 37° C. with 5% CO2. After antibodies treatments, cells were treated with TREML1 ECD (10 ug/ml) and incubated for 1 hours. Cells were washed with PBS containing 1% FBS and stained with AF647-anti-human TREML1 antibody, followed by flow cytometric analysis.
The cells were resuspended in PBS containing 1% FBS at a density of 2×10^6 cells/ml and non-specific bindings of Abs were blocked using Human Fc Block (BD Biosciences #564220) at room temperature for 10 min. AF647-anti-human TREML1 (clone 268420) (R&D #FAB2394R) antibody was used as a detection antibody of TREML1 binding to cell surface. […] Binding analysis was performed on a CytoFLEX Flow Cytometer (Beckman Coulter) and the collected data were analyzed using Kazula software.

NF-κB = NF-κB activation in THP1/XBlue/MD2/CD14 cells (SEAP reporter, QUANTI-Blue); format: cell-based, human; settings: FIG. 5A
Source text: as §1
(§2) To investigate the effects of anti-TLR4 antibody and anti-MD2 antibody on TREML1 ECD-triggered TLR response, THP1/XBlue/MD2/CD14 cells were pretreated with anti-TLR4 antibody, anti-MD2 antibody, or IgG control for the indicated groups and incubated for 15 minutes at 37° C., 5% CO2. After pretreatments, THP1/XBlue/MD2/CD14 cells were stimulated by TREML1 ECD (10 ug/ml) and seeded at a concentration of 1×10^6 cells/ml (200 ul per well) into wells of a 96-well plate for 18 hr at 37° C., 5% CO2. To determine the NF-κB activation, the supernatants of culture medium were collected and assessed with QUANTI-Blue™ reagent (InvivoGen) according to the manufacturer's instructions.

MD2 = molecular target: T1, MD2 (Homo sapiens, UniProt Q9Y6Y9); assay: Solid phase binding assay, TREML1 ECD to immobilized MD2; settings: absorbance at 450 nm; TREML1 ECD 2.5 ug/ml to 156 ng/ml; FIG. 2
T1 sequence (Q9Y6Y9 19-160): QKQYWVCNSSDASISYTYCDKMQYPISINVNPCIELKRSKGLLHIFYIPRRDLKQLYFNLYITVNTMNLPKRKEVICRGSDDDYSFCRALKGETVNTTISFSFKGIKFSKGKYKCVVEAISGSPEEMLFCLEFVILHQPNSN
Protocol: (§3) To identify potential binding partners of TREML1 ECD, we used solid phase binding assay to assess interactions between TREML1 ECD and candidate proteins. Briefly, various candidate proteins and BSA (as a negative control) were coated on a 96-well plate and TREML1 ECD at various concentrations were added to the wells. After binding and washing, an anti-TREML1 antibody conjugated with horse radish peroxidase (HRP) was added to each well. After washing, HRP substrate, TMB (3,3′,5,5′-tetramethylbenzidine), was added. After reaction, absorbance at 450 nm was measured to assess TREML1 binding.
(§4) To investigate the protein-protein interactions. Recombinant TLR4 (5 ug/ml in PBS), MD2 (5 ug/ml in PBS), CD14 (5 ug/ml in PBS), and BSA (negative control) proteins were plated separately on 96-well plates and incubated overnight at 4 degrees Celsius. The blocking buffer (2% BSA in PBS) was added to avoid the nonspecific binding for 2 hr at room temperature. A serial diluted TREML1 ECD (2.5 ug/ml to 156 ng/ml, 2-fold dilutions) solutions were added and allowed to incubate at room temperature for 2 hr. Then, anti-TREML1 antibody (1 ug/ml in PBS) was added for 1 hr. Next, a secondary antibody with HRP labeling, anti-Rat IgG-HRP, was added to the plates and incubated for 30 minutes at room temperature. […] Absorbance at OD450/540 nm was measured with a microplate reader.

TLR4 = TLR4 (Homo sapiens, UniProt O00206); assay: Solid phase binding assay, TREML1 ECD to immobilized TLR4; settings: absorbance at 450 nm; TREML1 ECD 2.5 ug/ml to 156 ng/ml; FIG. 2
Protocol: as §3, §4

[2] = system: Human peripheral blood mononuclear cells (PBMCs); assay: TLR agonist-induced TNF-α secretion in human PBMCs with or without TREML1 ECD; format: cell-based; settings: human PBMCs pretreated with hTREML1 10, 5, 1 ug/ml for 30 min
Protocol: Human peripheral blood samples from healthy volunteer donors were collected by venipuncture bled into ACD vacutainer tubes. Human peripheral blood mononuclear cells (PBMCs), which were separated from whole blood using Ficoll-Paque Plus (GE17-1440-03) according to the manufacturer's instructions. Human peripheral blood mononuclear cells (PBMCs) were pretreated with or without […]1 (10 ug/ml, 5 ug/ml and 1 ug/ml) and incubated for 30 min at 37° C. with 5% CO2. After treatments, cells were stimulated with TLR agonist, including R848 (InvivoGen #tlrl-r848) and ODN2395 (InvivoGen #tlrl-2395), and incubated at 37° C. with 5% CO2 for 18 hr. Supernatants of cell culture medium were collected for TNF-α measurements. Cell supernatants and plasma samples were harvested and stored at -80° C. Human TNFα concentrations were detected using TNF-α DuoSet ELISA kit (R&D #DY210) according to manufacturer's instructions. Signals were developed using 3,3',5,5'-tetramethylbenzidine and the absorbance of 450 nm was detected with a microplate reader.

[3] = system: THP1/XBlue/MD2/CD14 cells; assay: TNF-α secretion by THP1/XBlue/MD2/CD14 monocytes (ELISA); format: cell-based, human; settings: FIG. 5B
Protocol: as §2
Cell supernatants and plasma samples were harvested and stored at −80° C. Human TNFα concentrations were detected using TNF-α DuoSet ELISA kit (R&D #DY210) according to manufacturer's instructions. Signals were developed using 3,3′,5,5′-tetramethylbenzidine and the absorbance of 450 nm was detected with a microplate reader.

CD14 = molecular target: T2, CD14 (Homo sapiens, UniProt P08571); assay: Solid phase binding assay, TREML1 ECD to immobilized CD14; settings: absorbance at 450 nm; FIG. 2
T2 sequence (P08571 20-345): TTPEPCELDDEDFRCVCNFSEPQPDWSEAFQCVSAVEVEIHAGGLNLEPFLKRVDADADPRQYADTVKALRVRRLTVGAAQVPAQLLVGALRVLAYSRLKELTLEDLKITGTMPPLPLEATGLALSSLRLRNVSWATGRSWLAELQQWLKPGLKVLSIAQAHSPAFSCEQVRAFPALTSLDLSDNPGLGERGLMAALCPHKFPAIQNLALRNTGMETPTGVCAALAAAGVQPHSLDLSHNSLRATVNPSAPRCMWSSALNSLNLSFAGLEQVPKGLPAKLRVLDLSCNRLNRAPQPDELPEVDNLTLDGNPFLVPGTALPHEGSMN
Protocol: as §3, §4

Sequence of TLR4 (O00206 24-839): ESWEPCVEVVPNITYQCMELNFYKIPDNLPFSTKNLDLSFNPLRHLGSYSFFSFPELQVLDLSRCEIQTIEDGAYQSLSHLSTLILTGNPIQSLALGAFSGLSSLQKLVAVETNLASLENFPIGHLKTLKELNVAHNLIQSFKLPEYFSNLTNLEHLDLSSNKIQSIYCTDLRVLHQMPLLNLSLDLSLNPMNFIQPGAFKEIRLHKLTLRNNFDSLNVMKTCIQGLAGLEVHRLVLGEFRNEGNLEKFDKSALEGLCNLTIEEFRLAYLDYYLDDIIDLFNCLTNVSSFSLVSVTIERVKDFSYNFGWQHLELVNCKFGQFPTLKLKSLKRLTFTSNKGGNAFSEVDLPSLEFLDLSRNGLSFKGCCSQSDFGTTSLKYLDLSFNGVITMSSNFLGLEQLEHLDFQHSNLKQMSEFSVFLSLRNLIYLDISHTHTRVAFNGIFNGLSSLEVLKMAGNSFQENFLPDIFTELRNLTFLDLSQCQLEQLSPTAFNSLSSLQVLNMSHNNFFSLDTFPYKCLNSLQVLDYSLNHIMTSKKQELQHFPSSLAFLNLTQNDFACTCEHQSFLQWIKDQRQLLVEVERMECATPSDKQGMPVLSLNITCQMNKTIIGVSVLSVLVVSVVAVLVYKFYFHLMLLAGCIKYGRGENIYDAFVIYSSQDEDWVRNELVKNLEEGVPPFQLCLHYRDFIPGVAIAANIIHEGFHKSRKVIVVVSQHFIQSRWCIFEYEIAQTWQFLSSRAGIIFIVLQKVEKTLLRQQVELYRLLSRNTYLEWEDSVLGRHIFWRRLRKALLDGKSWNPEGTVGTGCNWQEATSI

B1: TREML1 ECD: human TREML1 extracellular domain, SEQ ID NO:1; recombinant, E. coli, polyhistidine tag at the N-terminus (protein)
chain: QGIVGSLPEVLQAPVGSSILVQCHYRLQDVKAQKVWCRFLPEGCQPLVSSAVDRRAPAGRRTFLTDLGGGLLQVEMVTLQEEDAGEYGCMVDGARGPQILHRVSLNILPPEEEEETHKIGSLAENAFSDPAGSANPLEPSQDEKSIP
modifications: N-terminal polyhistidine tag; homo sapiens
notes: recombinant, E. coli, polyhistidine tag at the N-terminus
- binding to THP1/XBlue/MD2/CD14 cells [1]: can bind to the THP1/XBlue/MD2/CD14 cells
- NF-κB activation in THP1/XBlue/MD2/CD14 monocytes (NF-κB): induced activation of NF-κB
- TREML1 ECD binding to immobilized MD2 (MD2): binds MD2 and TLR4 in a concentration-dependent manner
- TREML1 ECD binding to immobilized TLR4 (TLR4): binds MD2 and TLR4 in a concentration-dependent manner
- effect on R848 (TLR7/8)-induced TNF-α secretion ([2]; FIG. 7A): enhanced in the presence of TREML1 ECD
- effect on ODN 2395 (TLR9)-induced TNF-α secretion ([2]; FIG. 7B): enhanced in the presence of TREML1 ECD in a dose-dependent manner
- TNF-α secretion by THP1/XBlue/MD2/CD14 monocytes [3]: induces THP1/XBlue/MD2/CD14 monocyte activation
- TREML1 ECD binding to immobilized CD14 (CD14): does not bind to CD14
